Where no end group is shown, it is not given here. [ ]: non-standard residue; d: D form. Aib = CC(C)(N)C(=O)O

To fix the notation:
B1: [Aib8,Glu23,Val25,Glu34,Lys35,Val36,Lys37]-GLP-1-(7-37)-peptidyl-Glu-Phe-Leu amide (peptide)
peptide: H[Aib]EGTFTSDVSSYLEGEAVKEFIAWLVEKVKEFL-NH2
modifications: N-terminus assumed
SMILES: CC[C@H](C)[C@H](NC(=O)[C@H](Cc1ccccc1)NC(=O)[C@H](CCC(=O)O)NC(=O)[C@H](CCCCN)NC(=O)[C@@H](NC(=O)[C@H](C)NC(=O)[C@H](CCC(=O)O)NC(=O)CNC(=O)[C@H](CCC(=O)O)NC(=O)[C@H](CC(C)C)NC(=O)[C@H](Cc1ccc(O)cc1)NC(=O)[C@H](CO)NC(=O)[C@H](CO)NC(=O)[C@@H](NC(=O)[C@H](CC(=O)O)NC(=O)[C@H](CO)NC(=O)[C@@H](NC(=O)[C@H](Cc1ccccc1)NC(=O)[C@@H](NC(=O)CNC(=O)[C@H](CCC(=O)O)NC(=O)C(C)(C)NC(=O)[C@@H](N)Cc1c[nH]cn1)[C@@H](C)O)[C@@H](C)O)C(C)C)C(C)C)C(=O)N[C@@H](C)C(=O)N[C@@H](Cc1c[nH]c2ccccc12)C(=O)N[C@@H](CC(C)C)C(=O)N[C@H](C(=O)N[C@@H](CCC(=O)O)C(=O)N[C@@H](CCCCN)C(=O)N[C@H](C(=O)N[C@@H](CCCCN)C(=O)N[C@@H](CCC(=O)O)C(=O)N[C@@H](Cc1ccccc1)C(=O)N[C@@H](CC(C)C)C(N)=O)C(C)C)C(C)C
B2: [Aib8,Glu23,Val25,Gln30,Glu34,Lys35,Aib36,Lys37]-GLP-1-(7-37)-peptidyl-Glu-Phe-Leu amide (peptide)
peptide: H[Aib]EGTFTSDVSSYLEGEAVKEFIQWLVEK[Aib]KEFL-NH2
modifications: N-terminus assumed
SMILES: CC[C@H](C)[C@H](NC(=O)[C@H](Cc1ccccc1)NC(=O)[C@H](CCC(=O)O)NC(=O)[C@H](CCCCN)NC(=O)[C@@H](NC(=O)[C@H](C)NC(=O)[C@H](CCC(=O)O)NC(=O)CNC(=O)[C@H](CCC(=O)O)NC(=O)[C@H](CC(C)C)NC(=O)[C@H](Cc1ccc(O)cc1)NC(=O)[C@H](CO)NC(=O)[C@H](CO)NC(=O)[C@@H](NC(=O)[C@H](CC(=O)O)NC(=O)[C@H](CO)NC(=O)[C@@H](NC(=O)[C@H](Cc1ccccc1)NC(=O)[C@@H](NC(=O)CNC(=O)[C@H](CCC(=O)O)NC(=O)C(C)(C)NC(=O)[C@@H](N)Cc1c[nH]cn1)[C@@H](C)O)[C@@H](C)O)C(C)C)C(C)C)C(=O)N[C@@H](CCC(N)=O)C(=O)N[C@@H](Cc1c[nH]c2ccccc12)C(=O)N[C@@H](CC(C)C)C(=O)N[C@H](C(=O)N[C@@H](CCC(=O)O)C(=O)N[C@@H](CCCCN)C(=O)NC(C)(C)C(=O)N[C@@H](CCCCN)C(=O)N[C@@H](CCC(=O)O)C(=O)N[C@@H](Cc1ccccc1)C(=O)N[C@@H](CC(C)C)C(N)=O)C(C)C
B3: [Aib8,Glu23,Val25,Lys30,Glu34,Lys35,Leu36,Lys37]-GLP-1-(7-37)-peptidyl-Glu-Phe-Leu amide (peptide)
peptide: H[Aib]EGTFTSDVSSYLEGEAVKEFIKWLVEKLKEFL-NH2
modifications: N-terminus assumed
SMILES: CC[C@H](C)[C@H](NC(=O)[C@H](Cc1ccccc1)NC(=O)[C@H](CCC(=O)O)NC(=O)[C@H](CCCCN)NC(=O)[C@@H](NC(=O)[C@H](C)NC(=O)[C@H](CCC(=O)O)NC(=O)CNC(=O)[C@H](CCC(=O)O)NC(=O)[C@H](CC(C)C)NC(=O)[C@H](Cc1ccc(O)cc1)NC(=O)[C@H](CO)NC(=O)[C@H](CO)NC(=O)[C@@H](NC(=O)[C@H](CC(=O)O)NC(=O)[C@H](CO)NC(=O)[C@@H](NC(=O)[C@H](Cc1ccccc1)NC(=O)[C@@H](NC(=O)CNC(=O)[C@H](CCC(=O)O)NC(=O)C(C)(C)NC(=O)[C@@H](N)Cc1c[nH]cn1)[C@@H](C)O)[C@@H](C)O)C(C)C)C(C)C)C(=O)N[C@@H](CCCCN)C(=O)N[C@@H](Cc1c[nH]c2ccccc12)C(=O)N[C@@H](CC(C)C)C(=O)N[C@H](C(=O)N[C@@H](CCC(=O)O)C(=O)N[C@@H](CCCCN)C(=O)N[C@@H](CC(C)C)C(=O)N[C@@H](CCCCN)C(=O)N[C@@H](CCC(=O)O)C(=O)N[C@@H](Cc1ccccc1)C(=O)N[C@@H](CC(C)C)C(N)=O)C(C)C
B4: [Aib8,Glu23,Val25,Arg26,Glu34,Lys35,Aib36,Lys37]-GLP-1-(7-37)-peptidyl-Glu-Phe-Leu amide (peptide)
peptide: H[Aib]EGTFTSDVSSYLEGEAVREFIAWLVEK[Aib]KEFL-NH2
modifications: N-terminus assumed
SMILES: CC[C@H](C)[C@H](NC(=O)[C@H](Cc1ccccc1)NC(=O)[C@H](CCC(=O)O)NC(=O)[C@H](CCCNC(=N)N)NC(=O)[C@@H](NC(=O)[C@H](C)NC(=O)[C@H](CCC(=O)O)NC(=O)CNC(=O)[C@H](CCC(=O)O)NC(=O)[C@H](CC(C)C)NC(=O)[C@H](Cc1ccc(O)cc1)NC(=O)[C@H](CO)NC(=O)[C@H](CO)NC(=O)[C@@H](NC(=O)[C@H](CC(=O)O)NC(=O)[C@H](CO)NC(=O)[C@@H](NC(=O)[C@H](Cc1ccccc1)NC(=O)[C@@H](NC(=O)CNC(=O)[C@H](CCC(=O)O)NC(=O)C(C)(C)NC(=O)[C@@H](N)Cc1c[nH]cn1)[C@@H](C)O)[C@@H](C)O)C(C)C)C(C)C)C(=O)N[C@@H](C)C(=O)N[C@@H](Cc1c[nH]c2ccccc12)C(=O)N[C@@H](CC(C)C)C(=O)N[C@H](C(=O)N[C@@H](CCC(=O)O)C(=O)N[C@@H](CCCCN)C(=O)NC(C)(C)C(=O)N[C@@H](CCCCN)C(=O)N[C@@H](CCC(=O)O)C(=O)N[C@@H](Cc1ccccc1)C(=O)N[C@@H](CC(C)C)C(N)=O)C(C)C
B5: [Aib8,Glu23,Val25,Leu33,Glu34,Lys35,Aib36,Lys37]-GLP-1-(7-37)-peptidyl-Glu-Phe-Leu amide (peptide)
peptide: H[Aib]EGTFTSDVSSYLEGEAVKEFIAWLLEK[Aib]KEFL-NH2
modifications: N-terminus assumed
SMILES: CC[C@H](C)[C@H](NC(=O)[C@H](Cc1ccccc1)NC(=O)[C@H](CCC(=O)O)NC(=O)[C@H](CCCCN)NC(=O)[C@@H](NC(=O)[C@H](C)NC(=O)[C@H](CCC(=O)O)NC(=O)CNC(=O)[C@H](CCC(=O)O)NC(=O)[C@H](CC(C)C)NC(=O)[C@H](Cc1ccc(O)cc1)NC(=O)[C@H](CO)NC(=O)[C@H](CO)NC(=O)[C@@H](NC(=O)[C@H](CC(=O)O)NC(=O)[C@H](CO)NC(=O)[C@@H](NC(=O)[C@H](Cc1ccccc1)NC(=O)[C@@H](NC(=O)CNC(=O)[C@H](CCC(=O)O)NC(=O)C(C)(C)NC(=O)[C@@H](N)Cc1c[nH]cn1)[C@@H](C)O)[C@@H](C)O)C(C)C)C(C)C)C(=O)N[C@@H](C)C(=O)N[C@@H](Cc1c[nH]c2ccccc12)C(=O)N[C@@H](CC(C)C)C(=O)N[C@@H](CC(C)C)C(=O)N[C@@H](CCC(=O)O)C(=O)N[C@@H](CCCCN)C(=O)NC(C)(C)C(=O)N[C@@H](CCCCN)C(=O)N[C@@H](CCC(=O)O)C(=O)N[C@@H](Cc1ccccc1)C(=O)N[C@@H](CC(C)C)C(N)=O
B6: [Aib8,Glu23,Val25,Arg26,Val29,Gln30,Leu33,Glu34,Lys35,Aib36,Lys37]-GLP-1-(7-37)-peptidyl-Glu-Phe-Leu amide (peptide)
peptide: H[Aib]EGTFTSDVSSYLEGEAVREFVQWLLEK[Aib]KEFL-NH2
modifications: N-terminus assumed
SMILES: CC(C)C[C@H](NC(=O)[C@H](Cc1ccccc1)NC(=O)[C@H](CCC(=O)O)NC(=O)[C@H](CCCCN)NC(=O)C(C)(C)NC(=O)[C@H](CCCCN)NC(=O)[C@H](CCC(=O)O)NC(=O)[C@H](CC(C)C)NC(=O)[C@H](CC(C)C)NC(=O)[C@H](Cc1c[nH]c2ccccc12)NC(=O)[C@H](CCC(N)=O)NC(=O)[C@@H](NC(=O)[C@H](Cc1ccccc1)NC(=O)[C@H](CCC(=O)O)NC(=O)[C@H](CCCNC(=N)N)NC(=O)[C@@H](NC(=O)[C@H](C)NC(=O)[C@H](CCC(=O)O)NC(=O)CNC(=O)[C@H](CCC(=O)O)NC(=O)[C@H](CC(C)C)NC(=O)[C@H](Cc1ccc(O)cc1)NC(=O)[C@H](CO)NC(=O)[C@H](CO)NC(=O)[C@@H](NC(=O)[C@H](CC(=O)O)NC(=O)[C@H](CO)NC(=O)[C@@H](NC(=O)[C@H](Cc1ccccc1)NC(=O)[C@@H](NC(=O)CNC(=O)[C@H](CCC(=O)O)NC(=O)C(C)(C)NC(=O)[C@@H](N)Cc1c[nH]cn1)[C@@H](C)O)[C@@H](C)O)C(C)C)C(C)C)C(C)C)C(N)=O
B7: [Aib8,Glu23,Val25,Lys30,Glu34,Lys35,Aib36,Lys37]-GLP-1-(7-37)-peptidyl-Glu-Phe-Leu amide (peptide)
peptide: H[Aib]EGTFTSDVSSYLEGEAVKEFIKWLVEK[Aib]KEFL-NH2
modifications: N-terminus assumed
SMILES: CC[C@H](C)[C@H](NC(=O)[C@H](Cc1ccccc1)NC(=O)[C@H](CCC(=O)O)NC(=O)[C@H](CCCCN)NC(=O)[C@@H](NC(=O)[C@H](C)NC(=O)[C@H](CCC(=O)O)NC(=O)CNC(=O)[C@H](CCC(=O)O)NC(=O)[C@H](CC(C)C)NC(=O)[C@H](Cc1ccc(O)cc1)NC(=O)[C@H](CO)NC(=O)[C@H](CO)NC(=O)[C@@H](NC(=O)[C@H](CC(=O)O)NC(=O)[C@H](CO)NC(=O)[C@@H](NC(=O)[C@H](Cc1ccccc1)NC(=O)[C@@H](NC(=O)CNC(=O)[C@H](CCC(=O)O)NC(=O)C(C)(C)NC(=O)[C@@H](N)Cc1c[nH]cn1)[C@@H](C)O)[C@@H](C)O)C(C)C)C(C)C)C(=O)N[C@@H](CCCCN)C(=O)N[C@@H](Cc1c[nH]c2ccccc12)C(=O)N[C@@H](CC(C)C)C(=O)N[C@H](C(=O)N[C@@H](CCC(=O)O)C(=O)N[C@@H](CCCCN)C(=O)NC(C)(C)C(=O)N[C@@H](CCCCN)C(=O)N[C@@H](CCC(=O)O)C(=O)N[C@@H](Cc1ccccc1)C(=O)N[C@@H](CC(C)C)C(N)=O)C(C)C
B8: [Aib8,Glu23,Val25,Val29,Glu34,Lys35,Aib36,Lys37]-GLP-1-(7-37)-peptidyl-Glu-Phe-Leu amide (peptide)
peptide: H[Aib]EGTFTSDVSSYLEGEAVKEFVAWLVEK[Aib]KEFL-NH2
modifications: N-terminus assumed
SMILES: CC(C)C[C@H](NC(=O)[C@H](Cc1ccccc1)NC(=O)[C@H](CCC(=O)O)NC(=O)[C@H](CCCCN)NC(=O)C(C)(C)NC(=O)[C@H](CCCCN)NC(=O)[C@H](CCC(=O)O)NC(=O)[C@@H](NC(=O)[C@H](CC(C)C)NC(=O)[C@H](Cc1c[nH]c2ccccc12)NC(=O)[C@H](C)NC(=O)[C@@H](NC(=O)[C@H](Cc1ccccc1)NC(=O)[C@H](CCC(=O)O)NC(=O)[C@H](CCCCN)NC(=O)[C@@H](NC(=O)[C@H](C)NC(=O)[C@H](CCC(=O)O)NC(=O)CNC(=O)[C@H](CCC(=O)O)NC(=O)[C@H](CC(C)C)NC(=O)[C@H](Cc1ccc(O)cc1)NC(=O)[C@H](CO)NC(=O)[C@H](CO)NC(=O)[C@@H](NC(=O)[C@H](CC(=O)O)NC(=O)[C@H](CO)NC(=O)[C@@H](NC(=O)[C@H](Cc1ccccc1)NC(=O)[C@@H](NC(=O)CNC(=O)[C@H](CCC(=O)O)NC(=O)C(C)(C)NC(=O)[C@@H](N)Cc1c[nH]cn1)[C@@H](C)O)[C@@H](C)O)C(C)C)C(C)C)C(C)C)C(C)C)C(N)=O

The experiment deals with human GLP-1 receptor (human, UniProt P43220). In words: cell-based or functional assay.
B1: the “CRE luciferase EC50, 0% HSA” value was found to be 0.474 nM and the “CRE luciferase EC50, 1% HSA” value was found to be 0.381 nM.

For the molecule B2, the “CRE luciferase EC50, 0% HSA” value was 0.083 nM and the “CRE luciferase EC50, 1% HSA” value turned out to be 0.042 nM.

B3: the “CRE luciferase EC50, 0% HSA” value stood at 0.465 nM and the “CRE luciferase EC50, 1% HSA” value came to 0.275 nM.

B4: the “CRE luciferase EC50, 0% HSA” value is 0.076 nM and the “CRE luciferase EC50, 1% HSA” value is 0.028 nM.

B5: the “CRE luciferase EC50, 0% HSA” value worked out at 0.203 nM and the “CRE luciferase EC50, 1% HSA” value came out at 0.076 nM.

On to B6, for which the “CRE luciferase EC50, 0% HSA” value is 0.094 nM and the “CRE luciferase EC50, 1% HSA” value stood at 0.029 nM.

Consider B7, for which the “CRE luciferase EC50, 0% HSA” value came to 0.103 nM and the “CRE luciferase EC50, 1% HSA” value amounted to 0.043 nM.

In the case of B8, the “CRE luciferase EC50, 0% HSA” value came to 0.111 nM and the “CRE luciferase EC50, 1% HSA” value was determined as 0.036 nM.

The values above are taken from patent publication US20150344540A1, “NOVEL GLP-1 RECEPTOR AGONISTS WITH CHOLESTEROL EFFLUX ACTIVITY” (NOVO NORDISK A/S, priority 2012, published 2015).
